Experimental data reported in PMC3141240.

T1: KSHV SOX (alkaline exonuclease) (Kaposi's sarcoma-associated herpesvirus …, UniProt P88925 1-486)
T1 sequence: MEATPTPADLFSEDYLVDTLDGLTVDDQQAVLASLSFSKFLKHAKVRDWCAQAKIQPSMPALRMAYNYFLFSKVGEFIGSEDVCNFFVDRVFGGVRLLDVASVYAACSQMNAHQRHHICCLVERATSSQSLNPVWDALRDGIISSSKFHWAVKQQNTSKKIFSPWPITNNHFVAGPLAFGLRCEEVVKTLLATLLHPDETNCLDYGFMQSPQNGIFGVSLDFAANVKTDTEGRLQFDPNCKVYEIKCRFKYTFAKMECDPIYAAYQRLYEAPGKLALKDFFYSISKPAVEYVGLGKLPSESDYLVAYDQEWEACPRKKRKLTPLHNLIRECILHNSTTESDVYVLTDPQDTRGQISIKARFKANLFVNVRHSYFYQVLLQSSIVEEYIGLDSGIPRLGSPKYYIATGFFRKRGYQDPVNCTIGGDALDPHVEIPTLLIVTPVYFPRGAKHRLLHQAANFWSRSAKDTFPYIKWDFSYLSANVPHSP

B1: dsRNA-5'P (dsRNA)
RNA 1: UGGUUUACAUGUUCCAAUAUU
RNA 2: AAUAUUGGAACAUGUAAACCA
modifications: 5' phosphate on strand 1
B2: dsDNA-5'P (dsDNA)
DNA 1: GGGGATCCTCCCAGTCGACC
DNA 2: GGTCGACTAGGAGGATCCCC
modifications: 5' phosphate on strand 1

What follows are binders tested against T1, KSHV SOX (alkaline exonuclease) (assay: fluorescence anisotropy).

| Binder | Kd [µM] |
| --- | --- |
| B1 | 95 |
| UGGUUUACAUGUUCCAAUAUU (ssRNA, 5' phosphate) [ssRNA-5'P] | 87 |
| B2 | 6 |
